Biological target: the molecule itself
Assay: cross-linking; disulfide cross-link at Cys43 of freshly purified kinase; diluted in KPE buffer (10 mM potassium phosphate, 1 mM EDTA, pH 7.0) with 0, 5 or 15 mM DTT, 1 h on ice; maleimide in SDS sample buffer, nonreducing 9% SDS-PAGE without heating, anti-Flag Western blot

B1: Flag-tagged WT PKGIα (type I cGMP-dependent protein kinase, alpha isoform) (enzyme, UniProt Q13976 1-671, looked up)
chain: MSELEEDFAKILMLKEERIKELEKRLSEKEEEIQELKRKLHKCQSVLPVPSTHIGPRTTRAQGISAEPQTYRSFHDLRQAFRKFTKSERSKDLIKEAILDNDFMKNLELSQIQEIVDCMYPVEYGKDSCIIKEGDVGSLVYVMEDGKVEVTKEGVKLCTMGPGKVFGELAILYNCTRTATVKTLVNVKLWAIDRQCFQTIMMRTGLIKHTEYMEFLKSVPTFQSLPEEILSKLADVLEETHYENGEYIIRQGARGDTFFIISKGTVNVTREDSPSEDPVFLRTLGKGDWFGEKALQGEDVRTANVIAAEAVTCLVIDRDSFKHLIGGLDDVSNKAYEDAEAKAKYEAEAAFFANLKLSDFNIIDTLGVGGFGRVELVQLKSEESKTFAMKILKKRHIVDTRQQEHIRSEKQIMQGAHSDFIVRLYRTFKDSKYLYMLMEACLGGELWTILRDRGSFEDSTTRFYTACVVEAFAYLHSKGIIYRDLKPENLILDHRGYAKLVDFGFAKKIGFGKKTWTFCGTPEYVAPEIILNKGHDISADYWSLGILMYELLTGSPPFSGPDPMKTYNIILRGIDMIEFPKKIAKNAANLIKKLCRDNPSERLGNLKNGVKDIQKHKWFEGFNWEGLRKGTLTPPIIPSVASPTDTSNFDSFPEDNDEPPPDDNSGWDIDF
notes: PKGIα, the alpha isoform of type I cGMP-dependent protein kinase; On oxidation the two chains of the homodimer are joined by a disulfide between their Cys43 residues; source: HEK293T, transiently transfected, purified (anti-Flag beads, eluted in PBS with Flag peptide)
stoichiometry N: 2

— paper PMC9293632, “PKGIα is activated by metal-dependent oxidation in vitro but not in intact cells” (The Journal of Biological Chemistry, 2022)
